Source: patent US20230183352A1 (published 2023)
Where two headings read alike, the source gives them in different places.

Experiments:
[1] = molecular target: T1, Claudin 18.2 (CLDN18.2), expressed on CHOS-CLDN 18.2 / HEK293-CLDN 18.2 / HCC827-CLDN 18.2 cells (human, UniProt P56856-2 1-261); experiment: FACS, CHOS-CLDN18.2 cells, 1.250 µg/ml
T1 construct: whole, on cells; The species is not repeated for the CHOS-CLDN 18.2 cells; also called claudin-18A2
Procedure: (§1) The initial concentration of the antibody was 20 μg/ml, it was diluted at 1:4, and incubated at 4° C. for 60 min.

[2] = molecular target: T1, Claudin 18.2 (CLDN18.2), expressed on …; experiment: FACS, CHOS-CLDN18.2 cells, 20 µg/ml
Procedure: as §1

[3] = molecular target: T1, Claudin 18.2 (CLDN18.2), expressed on …; experiment: FACS, CHOS-CLDN18.2 cells
Procedure: as §1

[4] = molecular target: T1, Claudin 18.2 (CLDN18.2), expressed on …; experiment: FACS, CHOS-CLDN18.2 cells, 0.020 µg/ml
Procedure: as §1

[5] = molecular target: T1, Claudin 18.2 (CLDN18.2), expressed on …; experiment: FACS, CHOS-CLDN18.2 cells, 0.313 µg/ml
Procedure: as §1

[6] = molecular target: T1, Claudin 18.2 (CLDN18.2), expressed on …; experiment: FACS, CHOS-CLDN18.2 cells, 1.250 µg/ml; remark: listed apart in the source
Procedure: as §1

[7] = molecular target: T1, Claudin 18.2 (CLDN18.2), expressed on …; experiment: FACS, CHOS-CLDN18.2 cells, 0.020 µg/ml; remark: listed apart in the source
Procedure: as §1

[8] = molecular target: T1, Claudin 18.2 (CLDN18.2), expressed on …; experiment: FACS, CHOS-CLDN18.2 cells, 20 µg/ml; remark: listed apart in the source
Procedure: as §1

[9] = molecular target: T1, Claudin 18.2 (CLDN18.2), expressed on …; experiment: FACS, CHOS-CLDN18.2 cells, 20 µg/ml; remark: listed apart in the source
Procedure: as §1

[10] = molecular target: T1, Claudin 18.2 (CLDN18.2), expressed on …; experiment: FACS, CHOS-CLDN18.2 cells, 0 µg/ml (background)
Procedure: as §1

[11] = molecular target: T1, Claudin 18.2 (CLDN18.2), expressed on …; experiment: FACS, CHOS-CLDN18.2 cells; remark: listed apart in the source
Procedure: as §1

[12] = molecular target: T1, Claudin 18.2 (CLDN18.2), expressed on …; experiment: cell-based or functional assay

- FACS reading [1]: 63700
- FACS reading [2]: 72300
- EC50 [3]: 0.27 µg/mL
- max [3]: 88600
- FACS reading [4]: 6950
- FACS reading [5]: 51000
- FACS reading [6]: 63700
- FACS reading [7]: 6950
- FACS reading [8]: 72300
- FACS reading [9]: 72300
- FACS reading [10]: 732
- EC50 [11]: 0.27 µg/mL
- max [11]: 88600
B1: QP024025 (antibody, human IgG1, V domains shown)
VH: QVQLQQPGAELVRPGASVKLSCKASGYTFTSYWINWVKQRPGQGLEWIGNIYPSDSYTNYNQKFKDKATLTVDKSSSTAYMQLSSPTSEDSAVYYCTRSWRGNSFDYWGQGTTLTVSS
VL: DIVMTQSPSSLTVTAGEKVTMSCKSSQSLLNSGNQKNYLTWYQQKPGQPPKLLIYWASTRESGVPDRFTGSGSGTDFTLTISSVQAEDLAVYYCQNDYSYPFTFGSGTKLEIK
notes: also called IMAB362; 175D10(IMAB362)
- EC50 of killing, ADCC (PBMC, HEK293-CLDN18.2 cells) [12]: 0.0156 µg/mL
- Killing percentage, ADCC (PBMC, HEK293-CLDN18.2 cells), 0 µg/ml [12]: -1.33%
- Killing percentage, ADCC (PBMC, HEK293-CLDN18.2 cells), 0.0001024 µg/ml [12]: -2.74%
- Killing percentage, ADCC (PBMC, HEK293-CLDN18.2 cells), 0.000512 µg/ml [12]: 1.7%
- Killing percentage, ADCC (PBMC, HEK293-CLDN18.2 cells), 0.00256 µg/ml [12]: 1.49%
- Killing percentage, ADCC (PBMC, HEK293-CLDN18.2 cells), 0.0128 µg/ml [12]: 11%
- Killing percentage, ADCC (PBMC, HEK293-CLDN18.2 cells), 0.064 µg/ml [12]: 22%
- Killing percentage, ADCC (PBMC, HEK293-CLDN18.2 cells), 0.32 µg/ml [12]: 28.2%
- Killing percentage, ADCC (PBMC, HEK293-CLDN18.2 cells), 1.6 µg/ml [12]: 30%
- Killing percentage, ADCC (PBMC, HEK293-CLDN18.2 cells), 8 µg/ml [12]: 26.2%
- Killing percentage, ADCC (PBMC, HEK293-CLDN18.2 cells), 40 µg/ml [12]: 21.6%
